Data from patent US20250066500A1.

Key:
Experiment in all cases: cell-based or functional assay
[1] = target: IL-2Rβ and common γ chain on 32Dβ cells
[2] = target: IL-2Rα, IL-2Rβ and common γ chain on CTLL-2 cells
[3] = target: TGFβ1 (R&D systems) (UniProt P01137)
Chain of UniProt P01137 (P01137 279-390 limits assumed): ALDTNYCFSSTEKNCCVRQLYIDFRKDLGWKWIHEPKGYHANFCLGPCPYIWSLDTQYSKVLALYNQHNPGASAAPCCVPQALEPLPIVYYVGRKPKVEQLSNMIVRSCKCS

EC50 of 32Dβ cell proliferation (WST1, absorbance at 450 nM) [1] [pM]	EC50 of CTLL-2 cell proliferation (WST1, absorbance at 450 nM) [2] [pM]	IC50 of inhibition of TGFβ1 activity in HEK-Blue TGFβ reporter cells (QUANTI-Blue OD at 620-655 nM) [3] [pM]	Substance
10.6			recombinant IL-15 (from UniProt P40933 49-162) (ligand)
65.5	253		recombinant IL2 (Proleukin) (from UniProt P60568 22-153) (ligand)
140	548		recombinant IL-2 (from UniProt P60568 21-153) (ligand)
		461	TGFR-Fc (R&D Systems) (Fc fusion)
